Here are results for 57 variants from the Human Domainome abundance scans (Beltran et al. 2025).

First the molecules themselves.
B1: Ubiquitin-protein ligase residues 30 to 86; numbered along this chain, Q05086 (parent)
chain: KHLIERYYHQLTEGCGNEACTNEFCASCPTFLRMDNNAAAIKALELYKINAKLCDPH
B2: Chromodomain-helicase-DNA-binding protein 3, residues 374 to 426; numbered along this chain, Q12873 (parent)
chain: YETDHQDYCEVCQQGGEIILCDTCPRAYHLVCLDPELDRAPEGKWSCPHCEKE

± gives the uncertainty stated by the source.

In the first series the parent is B1. Kind of series: abundance fitness (aPCA) (normalised: wild type 0, dead -1); higher = more abundant; growth selection in yeast, the domain comes from the species named. The following applies: Homo sapiens.
Turning to KHLEERYYHQLTEGCGNEACTNEFCASCPTFLRMDNNAAAIKALELYKINAKLCDPH [I4E], the abundance fitness is -0.032 ± 0.063.
On the same count and under the same terms, for KHLSERYYHQLTEGCGNEACTNEFCASCPTFLRMDNNAAAIKALELYKINAKLCDPH [I4S] the value was 0.012 ± 0.059; for KHLYERYYHQLTEGCGNEACTNEFCASCPTFLRMDNNAAAIKALELYKINAKLCDPH [I4Y], -0.029 ± 0.083.
With KHLKERYYHQLTEGCGNEACTNEFCASCPTFLRMDNNAAAIKALELYKINAKLCDPH [I4K], the abundance fitness was 0.059 ± 0.084.
On the same count and under the same terms, for KHLAERYYHQLTEGCGNEACTNEFCASCPTFLRMDNNAAAIKALELYKINAKLCDPH [I4A] the value was -0.027 ± 0.057; for KHLCERYYHQLTEGCGNEACTNEFCASCPTFLRMDNNAAAIKALELYKINAKLCDPH [I4C], -0.113 ± 0.084.
On the same count and under the same terms, for KHLLERYYHQLTEGCGNEACTNEFCASCPTFLRMDNNAAAIKALELYKINAKLCDPH [I4L] the value was -0.159 ± 0.061; for KHLPERYYHQLTEGCGNEACTNEFCASCPTFLRMDNNAAAIKALELYKINAKLCDPH [I4P], -0.093 ± 0.071.
Take KHLMERYYHQLTEGCGNEACTNEFCASCPTFLRMDNNAAAIKALELYKINAKLCDPH [I4M]: the abundance fitness was -0.087 ± 0.079.
On the same count and under the same terms, for KHLDERYYHQLTEGCGNEACTNEFCASCPTFLRMDNNAAAIKALELYKINAKLCDPH [I4D] the value was -0.116 ± 0.077; for KHLQERYYHQLTEGCGNEACTNEFCASCPTFLRMDNNAAAIKALELYKINAKLCDPH [I4Q], 0.058 ± 0.089.
As for KHLWERYYHQLTEGCGNEACTNEFCASCPTFLRMDNNAAAIKALELYKINAKLCDPH [I4W], the abundance fitness is -0.208 ± 0.076.
Regarding KHLIIRYYHQLTEGCGNEACTNEFCASCPTFLRMDNNAAAIKALELYKINAKLCDPH [E5I], the abundance fitness was -0.142 ± 0.049.
The same measure, in the same setting: the figure for KHLICRYYHQLTEGCGNEACTNEFCASCPTFLRMDNNAAAIKALELYKINAKLCDPH [E5C] is -0.125 ± 0.049.
Still for that read-out and setting: for KHLIWRYYHQLTEGCGNEACTNEFCASCPTFLRMDNNAAAIKALELYKINAKLCDPH [E5W] the value was -0.08 ± 0.094; for KHLIMRYYHQLTEGCGNEACTNEFCASCPTFLRMDNNAAAIKALELYKINAKLCDPH [E5M], -0.105 ± 0.098.
Consider KHLIPRYYHQLTEGCGNEACTNEFCASCPTFLRMDNNAAAIKALELYKINAKLCDPH [E5P], for which the abundance fitness is -0.068 ± 0.05.
Same read-out and setting: the figure for KHLIVRYYHQLTEGCGNEACTNEFCASCPTFLRMDNNAAAIKALELYKINAKLCDPH [E5V] is -0.211 ± 0.048; for KHLIHRYYHQLTEGCGNEACTNEFCASCPTFLRMDNNAAAIKALELYKINAKLCDPH [E5H] it is -0.04 ± 0.048; for KHLILRYYHQLTEGCGNEACTNEFCASCPTFLRMDNNAAAIKALELYKINAKLCDPH [E5L] it is -0.123 ± 0.045.
KHLIARYYHQLTEGCGNEACTNEFCASCPTFLRMDNNAAAIKALELYKINAKLCDPH [E5A]: the abundance fitness is -0.116 ± 0.048.
With KHLIFRYYHQLTEGCGNEACTNEFCASCPTFLRMDNNAAAIKALELYKINAKLCDPH [E5F], the abundance fitness is -0.112 ± 0.047.
The same measure, in the same setting: the figure for KHLIGRYYHQLTEGCGNEACTNEFCASCPTFLRMDNNAAAIKALELYKINAKLCDPH [E5G] is -0.042 ± 0.052.
Still for that read-out and setting: for KHLIRRYYHQLTEGCGNEACTNEFCASCPTFLRMDNNAAAIKALELYKINAKLCDPH [E5R] the value was 0.015 ± 0.048; for KHLIKRYYHQLTEGCGNEACTNEFCASCPTFLRMDNNAAAIKALELYKINAKLCDPH [E5K], 0.037 ± 0.089.
Still for that read-out and setting: the figure for KHLISRYYHQLTEGCGNEACTNEFCASCPTFLRMDNNAAAIKALELYKINAKLCDPH [E5S] is -0.01 ± 0.043; for KHLIQRYYHQLTEGCGNEACTNEFCASCPTFLRMDNNAAAIKALELYKINAKLCDPH [E5Q] it is 0.037 ± 0.1; for KHLITRYYHQLTEGCGNEACTNEFCASCPTFLRMDNNAAAIKALELYKINAKLCDPH [E5T] it is -0.005 ± 0.046.
As to KHLINRYYHQLTEGCGNEACTNEFCASCPTFLRMDNNAAAIKALELYKINAKLCDPH [E5N], the abundance fitness was determined as 0.058 ± 0.049.

Variants of B2 are the subject of the next series. The series is described as above. Particulars: Homo sapiens.
As to K52L, the abundance fitness was -0.308 ± 0.12.
In the case of K52A, the abundance fitness is -0.264 ± 0.14.
On the same count and under the same terms, for K52E the value was -0.308 ± 0.22; for K52V, -0.357 ± 0.14.
The same measure, in the same setting: the figure for K52G is -0.137 ± 0.1.
With K52P, the abundance fitness came out at 0.104 ± 0.18.
In the case of K52D, the abundance fitness is -0.413 ± 0.24.
For K52W, the abundance fitness was -0.487 ± 0.17.
On the same count and under the same terms, for K52N the value was -0.024 ± 0.18; for K52R, 0.013 ± 0.11.
Take K52S: the abundance fitness was 0.049 ± 0.12.
In the case of K52T, the abundance fitness was found to be 0.01 ± 0.2.
Same read-out and setting: for K52M the value was -0.156 ± 0.23; for K52H, -0.38 ± 0.28; for E51W, -0.501 ± 0.18.
The same measure, in the same setting: the figure for E51Y is -0.554 ± 0.37; for E53R it is -0.276 ± 0.21; for E53W it is -0.401 ± 0.32.
On the same count and under the same terms, for E53I the value was -0.37 ± 0.36; for E53Q, -0.118 ± 0.26; for E53C, -0.584 ± 0.47.
Consider E53M, for which the abundance fitness was -0.19 ± 0.28.
Same read-out and setting: the figure for E53G is -0.118 ± 0.15; for E53H it is -0.426 ± 0.3; for E53S it is -0.48 ± 0.22.
Turning to E53D, the abundance fitness is -0.374 ± 0.23.
On the same count and under the same terms, for E53T the value was -0.187 ± 0.31; for E53V, -0.309 ± 0.17.
